Starred links: 1 amine or outer side, 2 acyl side, 3 side chain; linkers in the order of their positions; H or OH if unused. Non-standard residues stand in square brackets, D forms with d. Groups on a side chain read outwards from the residue. No end group written: not given here. *: point of attachment. C18 diacid = O=C(O)CCCCCCCCCCCCCCCCC(=O)*; γGlu = O=C(O)[C@H](CCC(=O)[*:2])N[*:1]; AEEA = NCCOCCOCC(=O)O; Aib = CC(C)(N)C(=O)O
Columns and labels:
human GLP-1 receptor = target: T1, human GLP-1 receptor (human, UniProt P43220 24-463); assay: displacement of [125I]-GLP-1-(7-36)NH2 from BHK membranes with human GLP-1R, SPA, no serum albumin
T1 construct: whole, on cells; reporter assay used whole cells

human glucagon receptor = target: T2, human glucagon receptor (human, UniProt P47871 26-477); assay: displacement of [125I]-glucagon from BHK membranes with human glucagon receptor, SPA, no serum albumin
T2 construct: whole, on cells; reporter assay used whole cells; also called hGCGR
T2 sequence (P47871 26-477): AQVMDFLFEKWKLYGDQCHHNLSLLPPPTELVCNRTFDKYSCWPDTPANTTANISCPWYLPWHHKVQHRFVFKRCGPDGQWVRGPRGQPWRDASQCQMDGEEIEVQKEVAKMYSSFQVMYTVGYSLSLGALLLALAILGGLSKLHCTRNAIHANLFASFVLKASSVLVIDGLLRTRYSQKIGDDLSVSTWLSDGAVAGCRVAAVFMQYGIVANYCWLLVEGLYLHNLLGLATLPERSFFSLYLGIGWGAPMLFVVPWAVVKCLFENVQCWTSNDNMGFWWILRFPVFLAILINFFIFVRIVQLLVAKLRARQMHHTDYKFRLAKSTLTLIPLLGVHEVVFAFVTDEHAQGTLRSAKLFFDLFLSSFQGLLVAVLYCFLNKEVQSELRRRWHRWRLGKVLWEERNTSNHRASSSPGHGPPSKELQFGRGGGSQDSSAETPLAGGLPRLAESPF

B1: N^ε29-[(4S)-4-carboxy-4-[[(4S)-4-carboxy-4-[[2-[2-[2-[[2-[2-[2-[[(4S)-4-carboxy-4-(17-carboxyheptadecanoylamino)butanoyl]amino]ethoxy]ethoxy]acetyl]amino]ethoxy … (peptide)
peptide: H[Aib]QGTFTSDLSKYLDLRRAREFVQWLINK([γGlu-γGlu-AEEA-AEEA-γGlu-C18 diacid])-NH2
modifications: N-terminus assumed
SMILES: CC[C@H](C)[C@H](NC(=O)[C@H](CC(C)C)NC(=O)[C@H](Cc1c[nH]c2ccccc12)NC(=O)[C@H](CCC(N)=O)NC(=O)[C@@H](NC(=O)[C@H](Cc1ccccc1)NC(=O)[C@H](CCC(=O)O)NC(=O)[C@H](CCCNC(=N)N)NC(=O)[C@H](C)NC(=O)[C@H](CCCNC(=N)N)NC(=O)[C@H](CCCNC(=N)N)NC(=O)[C@H](CC(C)C)NC(=O)[C@H](CC(=O)O)NC(=O)[C@H](CC(C)C)NC(=O)[C@H](Cc1ccc(O)cc1)NC(=O)[C@H](CCCCN)NC(=O)[C@H](CO)NC(=O)[C@H](CC(C)C)NC(=O)[C@H](CC(=O)O)NC(=O)[C@H](CO)NC(=O)[C@@H](NC(=O)[C@H](Cc1ccccc1)NC(=O)[C@@H](NC(=O)CNC(=O)[C@H](CCC(N)=O)NC(=O)C(C)(C)NC(=O)[C@@H](N)Cc1c[nH]cn1)[C@@H](C)O)[C@@H](C)O)C(C)C)C(=O)N[C@@H](CC(N)=O)C(=O)N[C@@H](CCCCNC(=O)CC[C@H](NC(=O)CC[C@H](NC(=O)COCCOCCNC(=O)COCCOCCNC(=O)CC[C@H](NC(=O)CCCCCCCCCCCCCCCCC(=O)O)C(=O)O)C(=O)O)C(=O)O)C(N)=O
notes: also called Chem. 22; Chem 22
IC50 (human GLP-1 receptor): 0.3 nM | IC50 (human glucagon receptor): 67.3 nM

B2: N^ε29-[(4S)-4-carboxy-4-[[(4S)-4-carboxy-4-[[2-[2-[2-[[2-[2-[2-[[(4S)-4-carboxy-4-(17-carboxyheptadecanoylamino)butanoyl]amino]ethoxy]ethoxy]acetyl]amino]ethoxy … (peptide)
chain: H[Aib]QGTFTSDLSKYLDLRRARDFVQWLINK([γGlu-γGlu-AEEA-AEEA-γGlu-C18 diacid])-NH2
modifications: N-terminus assumed
SMILES: CC[C@H](C)[C@H](NC(=O)[C@H](CC(C)C)NC(=O)[C@H](Cc1c[nH]c2ccccc12)NC(=O)[C@H](CCC(N)=O)NC(=O)[C@@H](NC(=O)[C@H](Cc1ccccc1)NC(=O)[C@H](CC(=O)O)NC(=O)[C@H](CCCNC(=N)N)NC(=O)[C@H](C)NC(=O)[C@H](CCCNC(=N)N)NC(=O)[C@H](CCCNC(=N)N)NC(=O)[C@H](CC(C)C)NC(=O)[C@H](CC(=O)O)NC(=O)[C@H](CC(C)C)NC(=O)[C@H](Cc1ccc(O)cc1)NC(=O)[C@H](CCCCN)NC(=O)[C@H](CO)NC(=O)[C@H](CC(C)C)NC(=O)[C@H](CC(=O)O)NC(=O)[C@H](CO)NC(=O)[C@@H](NC(=O)[C@H](Cc1ccccc1)NC(=O)[C@@H](NC(=O)CNC(=O)[C@H](CCC(N)=O)NC(=O)C(C)(C)NC(=O)[C@@H](N)Cc1c[nH]cn1)[C@@H](C)O)[C@@H](C)O)C(C)C)C(=O)N[C@@H](CC(N)=O)C(=O)N[C@@H](CCCCNC(=O)CC[C@H](NC(=O)CC[C@H](NC(=O)COCCOCCNC(=O)COCCOCCNC(=O)CC[C@H](NC(=O)CCCCCCCCCCCCCCCCC(=O)O)C(=O)O)C(=O)O)C(=O)O)C(N)=O
IC50 (human GLP-1 receptor): 0.3 nM | IC50 (human glucagon receptor): 83.2 nM

B3: N^ε29-[(4S)-4-carboxy-4-[[(4S)-4-carboxy-4-[[2-[2-[2-[[2-[2-[2-[[(4S)-4-carboxy-4-(17-carboxyheptadecanoylamino)butanoyl]amino]ethoxy]ethoxy]acetyl]amino]ethoxy … (peptide)
chain: H[Aib]QGTFTSDLSKYLDLRRARDFVQWLISK([γGlu-γGlu-AEEA-AEEA-γGlu-C18 diacid])-NH2
modifications: N-terminus assumed
SMILES: CC[C@H](C)[C@H](NC(=O)[C@H](CC(C)C)NC(=O)[C@H](Cc1c[nH]c2ccccc12)NC(=O)[C@H](CCC(N)=O)NC(=O)[C@@H](NC(=O)[C@H](Cc1ccccc1)NC(=O)[C@H](CC(=O)O)NC(=O)[C@H](CCCNC(=N)N)NC(=O)[C@H](C)NC(=O)[C@H](CCCNC(=N)N)NC(=O)[C@H](CCCNC(=N)N)NC(=O)[C@H](CC(C)C)NC(=O)[C@H](CC(=O)O)NC(=O)[C@H](CC(C)C)NC(=O)[C@H](Cc1ccc(O)cc1)NC(=O)[C@H](CCCCN)NC(=O)[C@H](CO)NC(=O)[C@H](CC(C)C)NC(=O)[C@H](CC(=O)O)NC(=O)[C@H](CO)NC(=O)[C@@H](NC(=O)[C@H](Cc1ccccc1)NC(=O)[C@@H](NC(=O)CNC(=O)[C@H](CCC(N)=O)NC(=O)C(C)(C)NC(=O)[C@@H](N)Cc1c[nH]cn1)[C@@H](C)O)[C@@H](C)O)C(C)C)C(=O)N[C@@H](CO)C(=O)N[C@@H](CCCCNC(=O)CC[C@H](NC(=O)CC[C@H](NC(=O)COCCOCCNC(=O)COCCOCCNC(=O)CC[C@H](NC(=O)CCCCCCCCCCCCCCCCC(=O)O)C(=O)O)C(=O)O)C(=O)O)C(N)=O
IC50 (human GLP-1 receptor): 1 nM | IC50 (human glucagon receptor): 64.7 nM

Source: patent US20170101454A1 (Novo Nordisk, published 2017)
